Laboratory results published in the supplement of paper PMC9170038.

Tested on: MS2 coat protein
Assay: apparent KD of MS2 coat protein; designed switch direction (-1 OFF switch, 1 ON switch): 1; higher = weaker reporter binding
Summary of the method: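 Each step of the titration lasted 0.8–1.5 h at the lowest concentration and 10–20 min at the highest. The protein, SNAP-549-labelled MS2 coat protein, went from 0.7 or 1.5 nM doubling to 3 µM over RNA switches transcribed on Illumina chips by stalled E. coli RNA polymerase. Normalised cluster fluorescence was curve-fitted, and the per-design median over clusters is given as apparent KD.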

[1] = input ligand: microRNA oligo, concentration not stated
[2] = Eterna round: R95, input ligand: FMN 200 uM
[3] = Eterna round: R95, input ligand: microRNA oligo, concentration not stated
[4] = Eterna round: R95, input ligand: none

## UGAACCUUCACAGGAUAUCAUGCGAAAAUUGCGUGAGAAGGGUGGAUGUGGCGUUCAAAGAUGCACAUGAGGAUCACCCAUGUA [SameState NG1 #49] (Eterna round: R96, puzzle: Same State NG 1)
Input ligand: FMN 200 uM
  apparent KD of MS2 coat protein: 0.162 µM
[1]
  apparent KD of MS2 coat protein: 0.113 µM
Input ligand: none
  apparent KD of MS2 coat protein: 0.191 µM

## AGAAGACAUGAGGAUCACCCAUGUACAUAAUGAGGAGAAUGGGAGGAUAUGCAGAGAGAGAGGGAGCAGAAGGUCCAGUAUGAA [Default title] (Eterna round: R96, puzzle: Same State NG 3)
Input ligand: FMN 200 uM
  apparent KD of MS2 coat protein: 0.0444 µM
[1]
  apparent KD of MS2 coat protein: 0.0516 µM
Input ligand: none
  apparent KD of MS2 coat protein: 0.105 µM

## ACCUUGUGGGUAGGAUAUUUAGGAUAUGCGGAAGACUAAGUCUGUAGGUCACCUAACGCAGAAGGAGAGAAGGACCCUUCAGCA [pwkr ssNG2 2FMN + F9.31] (Eterna round: R96, puzzle: Same State NG 2)
Input ligand: FMN 200 uM
  apparent KD of MS2 coat protein: 0.109 µM
[1]
  apparent KD of MS2 coat protein: 0.00366 µM
Input ligand: none
  apparent KD of MS2 coat protein: 0.00474 µM

## GUUAUUAAUGCAGGAUAUGAUUAACAUGAGGAUCACCCAUGUGGUGUUGUGAGUAAGGAGAGUGAUCAGAAGGGCAUUUUUUUU [JMF's solution 40] (Eterna round: R96, puzzle: Same State NG 2)
Input ligand: FMN 200 uM
  apparent KD of MS2 coat protein: 0.89 µM
[1]
  apparent KD of MS2 coat protein: 0.815 µM
Input ligand: none
  apparent KD of MS2 coat protein: 0.764 µM

## AUUAUAUAUGCAGGAUAUGAUUAACAUGAGGAUCACCCAUGUGGUGUUGUGAGUAAGGAGAGUGAUCAGAAGGGCAUUUUUUUU [JMF's solution 63] (Eterna round: R96, puzzle: Same State NG 2)
Input ligand: FMN 200 uM
  apparent KD of MS2 coat protein: 0.852 µM
[1]
  apparent KD of MS2 coat protein: 0.163 µM
Input ligand: none
  apparent KD of MS2 coat protein: 0.353 µM

## UUGAGGAAUUAAGGAUAUUGAGUACAUAUGUUUAACAUGAGGAUCACCCAUGUGGGUUGCGGUAUCGAGAAGGUAAAUUACUAG [JL SSNG2 1.46] (Eterna round: R96, puzzle: Same State NG 2)
Input ligand: FMN 200 uM
  apparent KD of MS2 coat protein: 0.141 µM
[1]
  apparent KD of MS2 coat protein: 0.0838 µM
Input ligand: none
  apparent KD of MS2 coat protein: 0.168 µM

## ACACCACAUGAGGAUCACCCAUGUGUCAAUAACACAGGAUAUCACCCGGAAAACAACGGGUGAGAAGGGUGACCGA [Edan] (puzzle: Same State 1)
[2]
  apparent KD of MS2 coat protein: 0.107 µM
[3]
  apparent KD of MS2 coat protein: 0.0446 µM
[4]
  apparent KD of MS2 coat protein: 0.0758 µM

## UGGCAACAUGAGGAUCACCCAUGUCAAACUAAUCGAGGAUAUGGGAACUAACAACACAAACUAGAAGGCGAACUUG [Altered State 1-10 - Jieux - Same State 1] (puzzle: Same State 1)
[2]
  apparent KD of MS2 coat protein: 0.0749 µM
[3]
  apparent KD of MS2 coat protein: 0.032 µM
[4]
  apparent KD of MS2 coat protein: 0.0383 µM

## AGUCCAGCCUGAGCUGGACAAGAGCAUGUACAUGAGGAUCACCCAUGUUCAUGUACAAGCUUUUUGCUCGUCUUAAA [Zipper 52 - 2] (puzzle: Sensor for hsa-mir-208a)
[2]
  apparent KD of MS2 coat protein: 0.399 µM
[3]
  apparent KD of MS2 coat protein: 0.0127 µM
[4]
  apparent KD of MS2 coat protein: 0.565 µM

## CGAUUCGCCAGUACAUGAGGAUCACCCAUGUAGAGACCAGUUUAGGAUAUCUUUGCGACGUGCUGAGAGAAGGGAAUAUGGAGC [Eternabot solution 45] (Eterna round: R96, puzzle: Same State NG 3)
Input ligand: FMN 200 uM
  apparent KD of MS2 coat protein: 0.0331 µM
[1]
  apparent KD of MS2 coat protein: 0.0275 µM
Input ligand: none
  apparent KD of MS2 coat protein: 0.0374 µM

## GCUCGGCUGAUGGCCCACAUGAGGAUCACCCAUGUGACUGGGCAGGAUAUCUAGAUGCAGGAUGUAGAGAAGGGCCUGCCGAGC [SameState NG3 #41] (Eterna round: R96, puzzle: Same State NG 3)
Input ligand: FMN 200 uM
  apparent KD of MS2 coat protein: 0.358 µM
[1]
  apparent KD of MS2 coat protein: 0.0988 µM
Input ligand: none
  apparent KD of MS2 coat protein: 0.155 µM

## UCUUGGUUUUUGCUCGUUUUUUGUGUUGAACAUGAGGAUCACCCAUGUAUUGUACGGUCCAGUUUAGUGGUAGUCCG [JMF 70] (puzzle: Sensor for hsa-mir-208a)
[2]
  apparent KD of MS2 coat protein: 0.0346 µM
[3]
  apparent KD of MS2 coat protein: 0.0215 µM
[4]
  apparent KD of MS2 coat protein: 0.0364 µM

## GACAAUCUAUCUGAGGAUAUCAUGAAAAAAACAUGAGGAUCACCCAUGUGCAGGAAAACUGCAUAUGAGAAGGCAGAUAGAUUGG [salish99_SS2_r3_011] (puzzle: Same State 2)
[2]
  apparent KD of MS2 coat protein: 0.0312 µM
[3]
  apparent KD of MS2 coat protein: 0.485 µM
[4]
  apparent KD of MS2 coat protein: 0.613 µM

## UGACACACGGCAGGAUAUCGAUUGCAAAGCAAUCGAGAAGGGCCUCAUGUCGUGGAAACGUGACAUGAGGAUCACCCAUGUCGC [Omei SS(NG)1 Cv13] (Eterna round: R96, puzzle: Same State NG 1)
Input ligand: FMN 200 uM
  apparent KD of MS2 coat protein: 0.0531 µM
[1]
  apparent KD of MS2 coat protein: 0.0116 µM
Input ligand: none
  apparent KD of MS2 coat protein: 0.024 µM

## GUACAGAUUAUAGGAUAUCACGUCGUUUAGACGUGAGAAGGAUAAUCCCACAUGAAUAUUAAUACAUGAGGAUCACCCAUGUAC [SSNG1/18-B3] (Eterna round: R96, puzzle: Same State NG 1)
Input ligand: FMN 200 uM
  apparent KD of MS2 coat protein: 0.0218 µM
[1]
  apparent KD of MS2 coat protein: 0.0277 µM
Input ligand: none
  apparent KD of MS2 coat protein: 0.0307 µM

## CAGGCGCAACAUGAGGAUCACCCAUGUGCUAACUUAACAGGGCAGGAUAUGGAAGCUCUAUGUCUCCAGAAGGGCUGGCGGAGC [Eternabot solution 38] (Eterna round: R96, puzzle: Same State NG 3)
Input ligand: FMN 200 uM
  apparent KD of MS2 coat protein: 0.0482 µM
[1]
  apparent KD of MS2 coat protein: 0.0326 µM
Input ligand: none
  apparent KD of MS2 coat protein: 0.0533 µM

## GAGUAUGAACUACAGGAUAUAUAGCAGAUGACAUGAGGAUCACCCAUGUAAGAGAAAGGAGGGAAAUAGAAGGGUAUGGGAGGUG [JR_SS2_Sub036] (puzzle: Same State 2)
[2]
  apparent KD of MS2 coat protein: 0.0376 µM
[3]
  apparent KD of MS2 coat protein: 0.0339 µM
[4]
  apparent KD of MS2 coat protein: 0.0314 µM

## GCGAGCGUACUUGCAGACAUGAGGAUCACCCAUGUAACUGGACAGGAUAUGGUACCGUUUCGGUACCAGAAGGGUUCACUCAUG [JL SSNG3 3.58] (Eterna round: R96, puzzle: Same State NG 3)
Input ligand: FMN 200 uM
  apparent KD of MS2 coat protein: 0.388 µM
[1]
  apparent KD of MS2 coat protein: 0.119 µM
Input ligand: none
  apparent KD of MS2 coat protein: 0.176 µM

## CGGCGCUGUCGAGAGGAUAUGCGGUGAUGGACAUGAGGAUCACCCAUGUUAGCGAUAGCAUCACGGUAGAAGGCUCUACGGCUUG [Soteed Omei mod 21] (puzzle: Same State 2)
[3]
  apparent KD of MS2 coat protein: 0.031 µM

## UUUUUUUUACAUGAGGAUCACCCAUGUCGGGCUGUUUGCUUUCAUGUCUUAUUGCAUGCAUGUUUUUCAUGCAUGCU [jnicol vienna2 solution] (puzzle: Sensor for hsa-mir-208a version 2)
[2]
  apparent KD of MS2 coat protein: 0.0977 µM
[3]
  apparent KD of MS2 coat protein: 0.129 µM
[4]
  apparent KD of MS2 coat protein: 0.145 µM

## GGAGCCGGCCUAGGAUAUUUCAUAAAUUUACAUGAGGAUCACCCAUGUAGGCCAGAAGGCCUUGGGAAGAAGGAGGUCGGCUCC [Loop Effect - U27,U28,U29] (Eterna round: R96, puzzle: Same State NG 2)
Input ligand: FMN 200 uM
  apparent KD of MS2 coat protein: 0.0113 µM
[1]
  apparent KD of MS2 coat protein: 0.0275 µM
Input ligand: none
  apparent KD of MS2 coat protein: 0.0405 µM

## ACAUGAACAUGAGGAUCACCCAUGUUUAGGAUCACCCAUGCUCAGGAUAUAGCAUGAGGACAUGACUAGAAGGGAGGUGCUGAG [Same State NG3 S2] (Eterna round: R96, puzzle: Same State NG 3)
Input ligand: FMN 200 uM
  apparent KD of MS2 coat protein: 0.041 µM
[1]
  apparent KD of MS2 coat protein: 0.027 µM
Input ligand: none
  apparent KD of MS2 coat protein: 0.0361 µM

## AUUGCUUACGCAGGAUAUGAUGCGGAAACUGCGUCAGAAGGGUGAAAAGAAUCGUUGCAAGAAGACAUGAGGAUCACCCAUGUC [SameState NG1 #95] (Eterna round: R96, puzzle: Same State NG 1)
Input ligand: FMN 200 uM
  apparent KD of MS2 coat protein: 0.02 µM
[1]
  apparent KD of MS2 coat protein: 0.023 µM
Input ligand: none
  apparent KD of MS2 coat protein: 0.0305 µM
